According to article PMC4883682, “STIM1 activation is regulated by a 14 amino acid sequence adjacent to the CRAC activation domain” (AIMS biophysics, 2016):

Biological target: the molecule itself
Assay: cross-linking; chemical crosslinking with dithiobis(succinymidyl propionate); constructs separately expressed; unstimulated state (Supplemental Figure S2)

| Protein | stoichiometry N |
| --- | --- |
| STIM1(del302-462)-mApple (natural protein, human, UniProt Q13586 23-685, looked up, signal peptide in the construct; source: COS7 cells, transiently transfected (Lipofectamine 2000), in live cells; not shown: mApple, C-terminal, kept) LSHSHSEKATGTSSGANSEESTAAEFCRIDKPLCHSEDEKLSFEAVRNIHKLMDDDANGDVDVEESDEFLREDLNYHDPTVKHSTFHGEDKLISVEDLWKAWKSSEVYNWTVDEVVQWLITYVELPQYEETFRKLQLSGHAMPRLAVTNTTMTGTVLKMTDRSHRQKLQLKALDTVLFGPPLLTRHNHLKDFMLVVSIVIGVGGCWFAYIQNRYSKEHMKKMMKDLEGLHRAEQSLHDLQERLHKAQEEHRTVEVEKVHLEKKLRDEINLAKQEAQRLKSTRPNPAHFIMTDDVDDMDEEIVSPLSMQSPSLQSSVRQRLTEPQHGLGSQRDLTHSDSESSLHMSDRQRVAPKPPQMSRAADEALNAMTSNGSHRLIEGVHPGSLVEKLPDSPALAKKALLALNHGLDKAHSLMELSPSAPPGGSPHLDSSRSHSPSSPDPDTPSPVGDSRALQASRNTRIPHLAGKKAVAEEDNGSIGEETDSSPGRKKFPLKIFKKPLKK | 2 |
| STIM1(del344-448)-mApple (natural protein, human, UniProt Q13586 23-685, looked up, signal peptide in the construct; source: COS7 cells, transiently transfected (Lipofectamine 2000), in live cells; not shown: mApple, C-terminal, kept) LSHSHSEKATGTSSGANSEESTAAEFCRIDKPLCHSEDEKLSFEAVRNIHKLMDDDANGDVDVEESDEFLREDLNYHDPTVKHSTFHGEDKLISVEDLWKAWKSSEVYNWTVDEVVQWLITYVELPQYEETFRKLQLSGHAMPRLAVTNTTMTGTVLKMTDRSHRQKLQLKALDTVLFGPPLLTRHNHLKDFMLVVSIVIGVGGCWFAYIQNRYSKEHMKKMMKDLEGLHRAEQSLHDLQERLHKAQEEHRTVEVEKVHLEKKLRDEINLAKQEAQRLKELREGTENERSRQKYAEEELEQVREALRKAEKELESHSSWYASLVAALNIDPSWMGSTRPNPAHFIMTDDVDDMDEEIVSPLSMQSPSLQSSVRQRLTEPQHGLGSQRDLTHSDSESSLHMSDRQRVAPKPPQMSRAADEALNAMTSNGSHRLIEGVHPGSLVEKLPDSPALAKKALLALNHGLDKAHSLMELSPSAPPGGSPHLDSSRSHSPSSPDPDTPSPVGDSRALQASRNTRIPHLAGKKAVAEEDNGSIGEETDSSPGRKKFPLKIFKKPLKK | 2 |
